Measured values published in the nanobody polyreactivity screen of Harvey et al. (2022).

Assay: yeast display, Sf9 membrane polyspecificity reagent, FACS + sequencing; frameworks hold sequencing errors
Procedure, shortened: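 Galactose induction of a Saccharomyces cerevisiae BJ5465 synthetic nanobody display library ran 36–48 hours. The cells were then stained for 1 hour at 4 °C with 10% biotinylated, detergent-solubilized Sf9 membrane reagent, pulled down on streptavidin microbeads and FACS-sorted into low and high (top ~1%) gates on expression and reagent-binding fluorescence. Labels for polyreactivity follow the gate of origin.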

Sequence | polyreactivity (PSR sort gate)
QVQLVESGGGLVQAGGSLRLSCAASGRTLQWYAMGWYRQAPGKERELVATISSGGSTKYADSVKGRFTISRDNAKNTVYLQMNSLKPEDTAVYYCNAQPYGIYYHRYYYWGQGTQVTVSS | low polyreactivity
QVQHVESGGGLVQAGGSLRLSCGASGRIFRRYAMGWYSLAAVKEREFVAAISYGGGSTYYADSVKGRFTISRDNAKNTVYLQMNSLKPEDSAVYYCNADVPKSLLLYYPWGYGYWGQGTQVTVSS | low polyreactivity
QVQLVESGGGLVQAGGSLRLSCAASGSIFSRYTRGWYRQAPGKEWELVASISRRGGRTYYADSVKGRFTISRDNAKNTVYLQMNSPKPEDTAVYYCNARGHGSAVGPFTRVNSWGQGTQVTVSS | high polyreactivity
QVQLVESGGGLVQAGGSLRLSCAASGRIFGEKAMGWYRQAPGKERELVADITWSGTSTYYADSVKGRFTISRDNAKNTVYLQMNSLKPEDTAVYYCAASATLFSSRGKRYYWGQGTQVTVSS | low polyreactivity
QVQLVESGGGLVQAGGSLRLSSAASGRIFYHNTMGWYRQAPGKERELVAAIRSGSSTYYADSVKGRFTISRDNAKNTVYLQMNSLKPEDTAVYYCNARPWYSWGVDYDYWGQGTQVTVSS | low polyreactivity
QVQLVESGGGLVQAGGSLRLSCAASGRVYAMGWYRQAPGKERELVAAISRNGGSTYYADSVKGRFTISRDNAKNNVYLQMNSLKPEDTAVYYCNKYSGYKGTDGGDYWGQGTQVTVSS | low polyreactivity
QVQRVESGGGLVQAGGSLRLRCAASGSIFYQYALGWYRQARGKEREWVAAISRSGGRTYYADSVKGRFTISRDNAKNTVYLQMNSLKPEDTAVYYCAAGTSWPWYQRDYWGQGTQVTVSS | low polyreactivity
QVQLVESGGRLVQAGGSLRLICAASGLIFRAYAMGWYIQAPGKERELVAAISRNGGSTYYADSVKGRFTISRDNAKNTVYLQMNILKPEDTAGYYCNKVSRSSVYQDYYYWGQGTQVTVSS | high polyreactivity
QVQLVESGGGLVQAGGSLRLSCAASGRIFPRYAMGWYRQAPGKERELVARITRRGGITYYADSVKGRFTISRDNAKNSVYLQMNSLKPEDTAVYYCNVDYYRGGDFSYGYDYWGQGTQVTVSS | high polyreactivity
QVQLVESGGGLVQAGGSLRLSCAASGFIFYSKAMGWYRQAPGKERELVAAISWGGGRTYYADSVKGRFTISRDNAKNTVYLQMNSLKPEDTAVYYCAAPWRRIGYSTRGYTLYDYWGQGTQVTVSS | high polyreactivity
QVQLVESGGGLVQAGGSLRLTCAASGRIFNAYAMGWYRQAPGKEREFVAAISYTVGSTYYADTVKGRFTISRDNAKITVNLQMISLKPEDTAVYYCAATGWDYYGGYDYWGQGTQVTVSS | high polyreactivity
QVQLQESVGGPVLAGGSLRLSCGASGTIFVRLDMGWYRQARGKVREFVATIGSGSSTYYADSVKGSFTISRDNVKNTVYLKMNSLKPEDTAVYYCAVYAAEQSRHYYWDQGTQVTVSS | low polyreactivity
QVQLVESGGGLVQAGGSLRLSCAASGRTFVVNYMGWYRQAPGKERELVATINVSGGSTSYADSVKGRFTISRDNAKNTVYLQMNSLKPEDTAVYYCNVDTYVEYPHDYWGQGTQVTVSS | low polyreactivity
QVQLVESGGGLVQAGCSLRLSCAASGLIIPVYVMGWYRQAPGKERELVADITTVGSTYADSVKGRFTISRDNAKNTVYFQMNSLKPEDTAVYYFADDPPAQQYWWDHGNYWGQGTQVTVSS | low polyreactivity
QVQLVESGGGVVQAGGSLRLSCAASGRIFVYYMGWYRQAPGKERVLVAAISVGGGSTYYADSVKGRFTISRDHAKNTVYLQMNSLKPEDTAVYYCAAAWSNYFGDPSYYWGQGTQVTVSS | low polyreactivity
QVQLVESGGVLVQAGGSLRLSCAASGSIFAGNAMGWYRQEPGKERELVAAISRSGTRTYYADSVKGRFTISRDNAMNTVYLQMNSLKPEDTAVYYFAAYLPYRQGRYGYEYWGQGTQVTVSS | high polyreactivity
QVQLVESGGGLVQAGGSLRLSCAASGFIFTWYTMGWYRQAPGKERELVAAITSGGNTNYADSVKGRFTISRDNAKNTVYLQMNSLKPEDTAVYYCARGYLASRLKFAKYDYWGQGTQVTVSS | high polyreactivity
QVQLVESGGGLVQAGGSLRISCAASGRIFIWYDMGWYRQAPGKERELVAAITQSDDITYYADSVKGRFTISRDNAKNTVYLQMNSLKPEDTAVYYCAARVLETSTPYGYWGQGTQVTVSS | low polyreactivity
QVQLVESGGGLVQAGGSLRVSCAASGFTFGPNAMGWYSQAPGKERELVAAISQSGGSTYADSEKGRFTISRDNAKNTDYLHMNSLKPEDTAVYYCAAEFPDYYWWYEYWGQGTQVTVSS | high polyreactivity
QQQLVESDVGLDQAGRSHRLSCAASGFIFAPNAMGWYRQAPGKERELVAAITYRGGGTYYADSVKGRFTISRDNAKNTVYLQMNSLKPEDTAVYYCAAGYDSYYRGSYNYWGQGTQVTVSS | high polyreactivity
QVQLVESGGGLVQAGGSLRLICAASGFTFSGNTMGWYRQAPGKERELVATISRTGGITYYADSVKGRFTISRDNAKNTVYLQMNSLKPEDTAVYYCNRRYYYFVYPDDYWGQGTQVTVSS | high polyreactivity

Sequence | polyreactivity (PSR sort gate)
QVQLVESGGGLVQAGGSLRLSCAASGYTIYYYAMGWYRQAPGKERELVAVITSRGTRTYYADSVQGRFTISRDNAKNTVYLQMNSLKPEDTAVYYCNKARGVAYDWGQGTQVTVSS | high polyreactivity
QVQLVESGGGLVHAGGSLRLSCAASGSTFYSNVMGWYRQAPGKERELVAAISRSGGSTYYADSVKGRFTISRDNAKNTVYLQMNSLKAEDTAVYYCNRLRAPVRGDYWGQGTQVTVSS | high polyreactivity
QVQLVESGGGLGHAGGSLRLSCAASGGIYDYYAMGWNRQAPGKERELVTAITRSGSSTFYADSVKGRFTISRDNAKNTVYLQMKSVKPEDTAVYYCAAPYYYFAVYYGYIFEYDYWGQGTQVTVSS | low polyreactivity
QVQLVESGGGLVQAGGSLRLSCAASGFTFRGYAMGWYRQAPGKERELVAVINTDGSTNYADSVKGRFTISRDNAKNTVYLQMNSLKPEDTAVYYCNAVRSSIGSDNDYWGQGTQVTVSS | low polyreactivity
QVQLVESGGGLVQAGGSLRLSCAASGFIFGVNAMGWYRQAPGKERDLVAAITRNGGSTYYADSVKGRFTISRDNAKNTVYLQMNSLKPEDTAVYYCAKYVRRAPSTFDVDYWGQGTQVTVSS | high polyreactivity
QVKLEESGGGLVQAGGSLRLSCAASGSIFVVNAMGRYRPAPGKERELVDTITESGGSTYYADSVKGRFTISRDNAKNTVYLQMNSLKPEDTAVYYCAAYWHHKGDYWGQGTQVTVSS | low polyreactivity
QVQLVESGGGLVQAGGSLRLSCAATGLIIYRNAMGWYRQAPGKEREFVAAISYSGGSTSYADSVKGRLTISRDNAKNTVYLQMNSLKPEDTAVYYCAVDQSRGWFYLYYYWGQGTQVTVSS | low polyreactivity
QVQLVESGGGLVQAGGSLRLSCAASGSILYANAMGWYRQAPGKDRELVAAISARGTSTYYADSVKGRFTISRDNAKNTVYLQMNSLKPEDTAVYYCAAYVRKKLPSALMNYWGQGTQVTVSS | high polyreactivity
QVQLVESGGGLVQAGGSLRLSCAASGRTFYRYAMGWYRQAPGKERELVAAISSGGSTYYADSVKGRFTISRDNAKNTVYLQMNSLKPEDTAVYYCNADYGRRNHMDYWGQGTQVTVSS | low polyreactivity
QVQLVESGGGLVQAGGSLRLSSAASGFTFGNNAMVWYRQAPGKEREFVATISRRGGSTYYADSVKGRFTISRDNAKNTVYLLMNSLKPEDTAVYYCAVDRAGIKFAAGYDYWGQGTQVTVSS | high polyreactivity
QVQLVESGGGLVQAGGSHRLSCAASGSISRRYAMGWYRQAPGKERELVAAINQSGGRTYYADSVKGRFTISRDNAKNTVYLQMNSLKPEDTAVYYCAARLSGYDYWGQGTQVTVSS | high polyreactivity
QVQLVESGGGLVQAGGSLRLSCAASGSTFPHYAMGWYRQAPGKERELVAAISVRGGRTYYADSVKGRFTISRDNAKNTVYLQMNSLKPEDTAVYYCNKYYYFTKYGYWGQGTQVTVSS | high polyreactivity
QVQLVESGGGLVQAGGSLRLICAASGRIFWYYAMGWYRQAPGKERELVASITSGGRTKYADSVKGRFTISRDNAKNTVYLQMNSLKPEDTAVYYCAARLLIDYHADWWVAYDYWGQGTQVTVSS | low polyreactivity
QVQLVESGGGLVQAGGSLRLSCAASGITFDLYAMGRYRQAPGKERELVAASTYYADSVKGRFTISRDNAKNTVYLQMNSLKPEDTAVYFCNTREPVTYDYWGQGTQVTVSS | high polyreactivity
QVQLVESGGGLVQAGGSLRLSCAASGSIFYSNAMGWYRQAPGKERELVAAISVSGVTTYYADSVKGRFTISRDNAKNTVYLQMNSLKPEDTAVYYCAADTGYRYDDYYWWGGEYDYWGQGTQVTVSS | low polyreactivity
QVQLVESGGGLVQAGGSLRLSCAASGSIFGFYAKGWSRQAPGKEWELVAAITSGDSTHYADSVKGRFTISRDNAKNTVYLQMKSLKPEDTAVNYCAASAPYRYYRSAYSYWGLGTQVTVSS | low polyreactivity
QVQLVESGGGLVQAGGSLRLSCAASGRIFSHYAMGWYRQAPGKEREFVAAITYSGGSTYYADSVKGRFTISRDNAKNTVYLQMNSLKPEDTAVYYCNAKGYAKYYYWGQGTQVTVSS | high polyreactivity
QVQLVESGGGLVQAGGSLRLSCAASGRIFGYNTMGWYRQPPGKERELVAAITSTGRTYYADSVKGRFTISRDNAKNTVYLQMNSLKPEDTAVYYCNARSSYGWPKYYYWGQGTQVTVSS | high polyreactivity
QVQLVESGGGLVQAGGSLSLSCAASGSIFWRNAMGWYRPAPGKERELVAAITSGGSTYYADSVKGRFTISRDNAKNTVYLQMNSLKPEDTAVYYCAAGYSYRYDYWGQGTQVTVSS | low polyreactivity
QVQLVESGGGLVQAGGSLRLSCAASGSIFLSNMGWYRQAPGKERELVAAISRNGGSTYYADSVKGRFTISRDNAKNTVYLQMNSLKPEDTAVYYCAVQRYWGQGTQVTVSS | high polyreactivity
